# Experimental data reported in paper PMC4302597.
# Molecular target: tubulin of PC12 cells (microtubule (MT) fraction, soluble tubulin (ST) fraction or cell lysate) (rat (endogenous in PC12)) (UniProt P68370)
# Test: co-IP; MT fraction of PC12 cells, untreated or treated with 100 ng/mL NGF for three days; 100 μL aliquots (~0.25–1 mg/mL) with anti-α tubulin or anti-Gβ for 1 h at 4°C, then protein A-sepharose overnight at 4°C; immunoblot for Gβ or tubulin
substance,measurement,value
"βγ subunit of heterotrimeric G proteins (Gβγ), endogenous in PC12 cells (from UniProt P54311 1-340) (complex)",fold increase of co-immunoprecipitation in NGF-treated over untreated cells,2 to 3 fold
